For this assay, the target named is T1, ERp57蛋白 (蛋白二硫化物异构酶A3, purified recombinant full-length protein).
T1 chain: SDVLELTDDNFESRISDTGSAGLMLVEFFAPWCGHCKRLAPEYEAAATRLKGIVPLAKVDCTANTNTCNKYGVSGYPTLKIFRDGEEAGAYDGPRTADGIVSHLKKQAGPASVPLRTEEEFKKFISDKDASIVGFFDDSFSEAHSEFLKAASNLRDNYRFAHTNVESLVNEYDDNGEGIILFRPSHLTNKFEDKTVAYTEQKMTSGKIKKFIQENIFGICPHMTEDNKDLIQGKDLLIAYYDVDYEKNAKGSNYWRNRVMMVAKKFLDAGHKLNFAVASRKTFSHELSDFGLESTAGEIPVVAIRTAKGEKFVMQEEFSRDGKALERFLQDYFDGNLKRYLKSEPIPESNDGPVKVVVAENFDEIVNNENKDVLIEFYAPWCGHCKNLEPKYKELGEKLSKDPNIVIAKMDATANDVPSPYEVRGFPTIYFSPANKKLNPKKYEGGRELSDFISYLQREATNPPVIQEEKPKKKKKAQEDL
Description: SPR (Biacore), antigen protein immobilised on chip, nanobody as analyte. A general note: Surface plasmon resonance follows binding to a sensor surface in real time, without labels.

In patent CN114106188A (SHENZHEN PEOPLE HOSPITAL, dated 2022) one finds Kd data, which are given here for one molecule.

B1: NbA11纳米抗体 (VHH)
VHH: AVQLVESGGGLVQAGGSLRLSCAASGRAFSRYAVGWFRQTPGKEREFVAAISYHGGYTAYADSVKGRFTISRDSTSNTVHLQMNSLKPEDTAVYYCNTDARALYDYWGQGTQVTVSS
notes: Alpaca-derived nanobody from a naive phage display library; Expressed in E. coli from PET-14B with an HA tag and purified on a Ni column
In general, Kd refers to the equilibrium constant for the complex coming apart. As to B1, the Kd is 419 nM.
